Experiment: yeast display, Sf9 membrane polyspecificity reagent, FACS + sequencing; frameworks hold sequencing errors
Method in brief: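 Using colony PCR, genes from sorted yeast display clones were amplified, then sequenced on MiSeq at 2 × 250 and filtered by CDR length. The clones had been stained with 10% biotinylated, detergent-solubilized Sf9 membrane reagent for 1 hour at 4 °C and sorted by FACS into low and high (top ~1%) gates on anti-HA and streptavidin fluorescence. Polyreactivity labels come from the gate of origin.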

Sequence	polyreactivity (PSR sort gate)
QVQLVESGGGLVQAGGRLRLSCAASGSTFWSKVMGWYRQAPGKERELVSAISYGGVTTSYADSVKGRFTISRDNAKNTVYLQMTSLKPEDTAVYYCATDYVGYYFYESDYWGQGTQVTVSS	low polyreactivity
QVQLVESGGGLVQAGGRLRLSCAASGSTFYLNAMGWYRQAPGKERELVAAISSGGRTYYADSVKGRFTISRDNAKNTVYLQMTSLKPEDTAVYYCNAVRYLRGAYNYWGQGTQVTVSS	high polyreactivity
QVQLVESGGGLVQAGGRLRLSCAASGSTLSYYAMGWYIQAPGKERELVAAISFSGGSTYYADSVKGRFTISRDNAKNTVYLQMNSLKPEDTAVYYCNAPPLYRDEYWGQGTQVTVSS	high polyreactivity
QVQLVESGGGLVQAGGRLRLSCAASGSTYYNAMGWYRQAPGKERELVAAIRFRSGSTYYADSVKGRFTISRDNAKNTVYLQMNSLKPEDTAVYYCAAYCRRSYVDSYDIRFDYWGQGTQVTVSS	high polyreactivity
QVQLVESGGGLVQAGGRLRLSCAASGTIFYWNAMVWYRQATGKERELVAAINSGDSTNYADSVKGRFTISRDNAKNTVYFQMYSLKPEDTAVYYCAASIYAALNGGPGYDYWGQGTQVTVSS	low polyreactivity
QVQLVESGGGLVQAGGRLRLSCAASGTTIVYYAMGWSRQAPGKEREMVAAISWSGTRTYYADSVKGRFTISRDTGKNSVYLQMNSLIPEDTAVYYCAAKGGYSTGRPTFTIFNYWGQGTQVTVSS	high polyreactivity
QVQLVESGGGLVQAGGRLRLSCAASGYTFRRNAMGWYRQAPGKERELVAAITWRGTSTYYADSVKGRFTISRDNAKNTVYLQMNSLKPEDTAVYYCAARFYSGPGGYTMYYWGQGTQVTVSS	high polyreactivity
QVQLVESGGGLVQAGGRLRLSCAATGRTFSYNAMGWYRQAPGKERELVAAITTNSGSRTYYADSVKGRFTISRDNAKNTVYLQMNSLKPEDTAVYYCAADGPVVSGYYWGQGTQVTVSS	high polyreactivity
QVQLVESGGGLVQAGGRLRLSCAGSGSTSYGYAMGWYRQAPGKERELVAAITSGGRTYYADSVKGRFTISRDNAKNTVYFQMNSLKPEDTAVYYCAAVRALRKVRDYYYWGQGTQVTVSS	high polyreactivity
QVQLVESGGGLVQAGGRLRLSCAPSGSTFTANDMGWYRQAPVKERELVAAISISGTRTYYADSVKGRFTISRDNAKNTVYLQMNSLKPEDTAVYYGNKATSYFTVRGYDYWGQGTQVTVSS	high polyreactivity
QVQLVESGGGLVQAGGRLRLSCEASGNIFGYYAMGWSRQAPGKERELVAAITRSGSSTYYADSVKGRFTISRDNAKNNVFLQMNSLKPEDTAVYYCSADNFYQAYGYWGQGTQVTVSS	low polyreactivity
QVQLVESGGGLVQAGGRLRLSSAASGFTFNKYGMGWYRQAPRKERELVAAISGSGGSTRYADSVKGRFTISRDNAKNTVYLLMNSLKPEDTAVYFCAKRSQTRYYYWGQGTQVTVSS	high polyreactivity
QVQLVESGGGLVQAGGRLRLTCAASGRNYNGNAMGRYRQAPGTERELVAGIDSDGSTNYADSVKGRFTISRDNAKNTVYLQMNSLKPDDTAGYYCAAVQGYRFYEYYYWGQGTQVTVSS	low polyreactivity
QVQLVESGGGLVQAGGRLRLTCAASGSIFFYAMGWYRQAPGKERELVAGITTSGGSTYYADSVKGRFTISRDNAKNTVYLQMYSLKPEYTAVYYCAADGSRAGQEGNDYWGQGTQVTVSS	low polyreactivity
QVQLVESGGGLVQAGGRLRLTCAASGSTFFTNAMGWYRQAPGKERELVAAITINDGSTFYADSVKGRFTISRDNAKKTVYLQMNSLKPEDTAVYYCNADGVDLYDFWGQGTQVTVSS	low polyreactivity
QVQLVESGGGLVQAGGRLRLTCAASGSTFGDYAMGWYRQAPGKERELVAAITYSGGRTYYADSVKGRFTISRDNAKNTGDLQMNRLKPEDTAVYYCAARVRYPSRRGNYDYWGEGTQVTVSS	high polyreactivity
QVQLVESGGGLVQAGGRLRLTCAASGSTFPTYAMGWYRQAPGKERELVAAISTRGGSTYYADSVKGRFTISRDNAKNTVYLQMNSLKPEDTAVYYCATGKSLGRYHYEYWGQGSQVTVSS	low polyreactivity
QVQLVESGGGLVQAGGRLSLSCAASGSTLWGYAMGWYRQAPGKERELVATINQSAGSTYYADSVKGRFTISRDHAKNSVYLQMHSLKPEVTAVYYCAAEALVQFSYDYWGQGTQVTVSS	low polyreactivity
QVQLVESGGGLVQAGGRVRLSCAASVSTFKQYSMGWYRQATGKERELVAAITRGGRTNYAYSVKGRFTISRDNAKNTVSLQMNSLKQEDTAVYYCAKLLSGYGRWWYDYWGQGTQVTLSS	high polyreactivity
QVQLVESGGGLVQAGGSDRLSCAASGRTFDRYAMGWYRQAPGKERELVAAISRGGSTNYADSVKGRFTISRDNAKNTVYLQMNSLKPEDTAVYYCAARVSFLHLRRAYDYWGQGSQVTVSS	high polyreactivity
QVQLVESGGGLVQAGGSFRLSCPASGGPVDTYVMGCYRQARGKERELVAVITRGASTYYADSVKGRFTITRDNAKNTVYLQNNRLKPEDTAVYYCAAAFYSPDFYRFWYSFDYWGQGTQVTVSS	low polyreactivity
QVQLVESGGGLVQAGGSHPLSCAASGSIFDLYDMGWYRQAPGKERELVAAISLIGGSTSYADSVKGRFTISRDNAKNSVYLQMNSLKPEDTAVYYCAVDSRPYLRDYWGQGTQVTISS	low polyreactivity

Sequence	polyreactivity (PSR sort gate)
QVQLVESGGGLVQAGGSHRFSCAASGRIIYTNAMGWYRQAPGKEREFVAVISWGGDTTYYADSVKGRFTISRDNAKNTVYLQMNSLKPEDTAVYYCNAEWGPTYEIYDSWGPGTQVTVSS	low polyreactivity
QVQLVESGGGLVQAGGSHRLSCAASGFIFGINVMGWYRQAPGKERELVAAISGSGSSTYYADSVKGRFTISRDNAKNTVYLQMNSLKPEDTAVYYCAARSVSTLRFTSRKLRYDYWGQGTQVTVSS	high polyreactivity
QVQLVESGGGLVQAGGSHRLSCAASGFIFYSNAMGWYRQAPGKERELVAAITSGGSTYYADSVKGRFTISRDNAKNTVYLQMNSLKPEDTAVYYCNKARRWRGYDYWGQGTLVTVSS	high polyreactivity
QVQLVESGGGLVQAGGSHRLSCAASGFTFRHYTMGWYRQAPGKERELVAVITRSGGSTYYADSVKGRFTISRDNAKNTVYLQMNSLKPEDTAVYYCAVGRTYNADGYWGQGTQVTVSS	high polyreactivity
QVQLVESGGGLVQAGGSHRLSCAASGFTFYIYAMGWYRQAPGKERELVAAINIGGGGTYYADSVKGRFTISRDNAKNTVYLLMHSLKPEDTAVYDCAAVYCYDYYCTEYDYWGQGTQVNVSS	low polyreactivity
QVQLVESGGGLVQAGGSHRLSCAASGIIFYRNAMGWYRQAPGKERELVATITVSSGSTYYADSVKGRFTISRDNAKNTVYLLMYSLKPEDTAVYYCNARYYYFSVRYKYDFNYWGQGTQVTVSS	high polyreactivity
QVQLVESGGGLVQAGGSHRLSCAASGITFYGYARGWYRQAPGKERELVAAISGNGGRTYYADSVKGRFTISRDYAKNTVYLQMNSLKPEDTAVYYCNVKVRSRRTGDRYDYWGQGTQVTVSS	high polyreactivity
QVQLVESGGGLVQAGGSHRLSCAASGLTFTDNAMGRYRQAPGKERELVAAMSRCGGTTYYAASVKGRFTISRDNAKNTVYLQMNSLKPEDTAVYYCNADTYRRLYGNYDYWGQGTQLTVSS	high polyreactivity
QVQLVESGGGLVQAGGSHRLSCAASGRIFALNTMRWYRQAPGKEREFVAAITTSGGSTYADSVKGRFTISRDNAKNTVYLQMNSLKPEDTAVYYCNKEYYHKWAPTYDYWGQGTEVTVSS	low polyreactivity
QVQLVESGGGLVQAGGSHRLSCAASGRIFDDNALGWYCQAPGKERELVAAITGGGRTNYADSVKGRFTISRDNAKNTVYLQMNSLKPEDTAVSYCAAATYGWVIYIYDYWGQGTQVNVSS	low polyreactivity
QVQLVESGGGLVQAGGSHRLSCAASGRIFGYNAMGWYRQAPGKEWELVAAISSPGNTYYADSVKGRFTISRDNAKNTVYLQMNSLKPEDTAVYYCARSWLYSQRRYDYWGQGTQVTVSS	low polyreactivity
QVQLVESGGGLVQAGGSHRLSCAASGRIFNWYAMGWYRHAPGKDRALVARISSGDITSYADSVKGRFSISRDNAKNTVYLQMNILKPEDTAVYYCAARQWFLYDYWGQGTQVTVSS	low polyreactivity
QVQLVESGGGLVQAGGSHRLSCAASGRIFPSYAMGWYRQAPGKQRELVAAISKYGGRTYYADSVKGRFTISRDNAKNTVYLQMNSLKPEDTEVYYCAADGFRYYSWTRFSYYSGYDYWGQGSQVTVSS	high polyreactivity
QVQLVESGGGLVQAGGSHRLSCAASGRIFRPNAMGWYRQAPGKERELVASISQSGGSTYADSVKGRFTISRDNAKNTVYLQMNSLKPEDTAVYYCAKVQGWRYQIYDYWGQGTQVTVSS	low polyreactivity
QVQLVESGGGLVQAGGSHRLSCAASGRIFRRYAMGWYRQARGQERELDAGITGSGTSTYYADSVKGRFTISRDNAKNTVYLQMNSLKPEDTAVYYCAADRGRGYRYNYWGQGTQVTVSS	high polyreactivity
QVQLVESGGGLVQAGGSHRLSCAASGRIFYRYVMGWYRQAPGKERELVAAISRGGGTNYADSVKGRFTISRDNAKNTVYLQMNSLKPEDTAVYYCAARGSPGAGYYWGQGTQVTVSS	high polyreactivity
QVQLVESGGGLVQAGGSHRLSCAASGRSFKYYAMGWYRQAPGKERELVARISPSSGNTYYADSVKGRFTISRDNAKNTVYLQMNSLKPEDTGVYVCATVPHYNGFNYWGQGTQVTVSS	high polyreactivity
QVQLVESGGGLVQAGGSHRLSCAASGRTFPVYAMGWYRHAPGKERELVAAIRGRSVRTYYADSVKGRFTISRDNAQNSVYLQMNSLKPEDTAVYYCAAYYFNPGMDYWGQGTQVTVSS	high polyreactivity
QVQLVESGGGLVQAGGSHRLSCAASGRTFPYYAMGWYRQAPGKERELVAAITRGVRTHYADSVKGRFTISRDNAKNTVYLQMNSLKPEDTAVYYCAREDWGSYSDMDSWGQGTQVTVSS	low polyreactivity
QVQLVESGGGLVQAGGSHRLSCAASGRTFRDNTLGWYRQAPGKERELVAAISRRGGSTYYADSVKGRFTISRDNANNTVYLQMNSLKPVDTADYYCNAVFLTYGSNRGEYWGQGTQVTVSS	high polyreactivity
QVQLVESGGGLVQAGGSHRLSCAASGSIFVVYAMGWYRQAPGKERELVASIRTGGSTNYADSVKGRFTISRDNAKNTVYLQMNSLKPEDTAVYYCAAASWNSNRHYYVARYYYWGQGTQVTVSS	high polyreactivity

Source: the nanobody polyreactivity screen of Harvey et al. (2022)
